Experiments:
[1] = molecular target: T1, FcγRIa extracellular domain with C-terminal His tag (human, UniProt P12314 16-292); experiment: SPR; He/Con_1a divided by He/Con_2b (FcγRIa against FcγRIIb)
T1 construct: extracellular domain; also called FcgRI; CD64; not shown: His tag at the C terminus

[2] = molecular target: T2, FcγRIIb extracellular domain with C-terminal His tag (human, UniProt P31994 43-217); experiment: SPR (Biacore), antibody captured, FcγR analyte; relative to GpH7-A5/GpH7-B3/GpL16-k0 = 100
T2 construct: extracellular domain; also called FcgRIIb; CD32B; not shown: His tag at the C terminus
T2 sequence (looked up): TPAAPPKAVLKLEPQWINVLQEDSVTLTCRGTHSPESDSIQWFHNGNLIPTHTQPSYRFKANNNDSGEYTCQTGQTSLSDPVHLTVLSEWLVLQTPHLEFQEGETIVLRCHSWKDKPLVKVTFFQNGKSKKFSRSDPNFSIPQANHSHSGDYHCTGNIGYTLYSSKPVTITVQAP

[3] = molecular target: T1, FcγRIa extracellular domain with …; experiment: as above

T1 sequence (P12314 16-292): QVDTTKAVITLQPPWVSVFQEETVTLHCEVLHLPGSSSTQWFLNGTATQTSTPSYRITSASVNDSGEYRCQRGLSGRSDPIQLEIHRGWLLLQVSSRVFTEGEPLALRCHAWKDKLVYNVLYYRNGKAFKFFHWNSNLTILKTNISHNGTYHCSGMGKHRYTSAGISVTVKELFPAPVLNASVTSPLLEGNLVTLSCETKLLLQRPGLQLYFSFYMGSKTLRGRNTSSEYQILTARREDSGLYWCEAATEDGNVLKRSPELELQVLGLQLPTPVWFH

| Binder | He_1a/2b (Ia/IIb) [1] | He/Con_2b [2] | He/Con_1a [3] |
| --- | --- | --- | --- |
| GpH7-A5/GpH7-B3 variant G236_12R/GpL16-k0 (antibody, human IgG1, kappa, Heterodimerized anti-glypican-3 IgG1; mutation only in the GpH7-B3 H chain; also called He Ab) heavy 1: not shown heavy 2: not shown light: DIVMTQSPLSLPVTPGEPASISCQASESLVHSNRNTYLHWYLQKPGQSPQLLIYKVSNRFSGVPDRFSGSGSGTDFTLKISRVEAEDVGVYYCSQNTHVPPTFGQGTKVEIERTVAAPSVFIFPPSDEQLKSGTASVVCLLNNFYPREAKVQWKVDNALQSGNSQESVTEQDSKDSTYSLSSTLTLSKADYEKHKVYACEVTHQGLSSPVTKSFNRGEC | 9.3 ratio | 6.8 % of HeCon Ab | 63.1 % of HeCon Ab |
| GpH7-A5/GpH7-B3 variant G236_14T/GpL16-k0 (antibody, human IgG1, kappa, Heterodimerized anti-glypican-3 IgG1; mutation only in the GpH7-B3 H chain; also called He Ab) heavy 1: not shown heavy 2: not shown light: DIVMTQSPLSLPVTPGEPASISCQASESLVHSNRNTYLHWYLQKPGQSPQLLIYKVSNRFSGVPDRFSGSGSGTDFTLKISRVEAEDVGVYYCSQNTHVPPTFGQGTKVEIERTVAAPSVFIFPPSDEQLKSGTASVVCLLNNFYPREAKVQWKVDNALQSGNSQESVTEQDSKDSTYSLSSTLTLSKADYEKHKVYACEVTHQGLSSPVTKSFNRGEC | 1.59 ratio | 57.8 % of HeCon Ab | 92.2 % of HeCon Ab |
| GpH7-A5/GpH7-B3 variant G236_15Y/GpL16-k0 (antibody, human IgG1, kappa, Heterodimerized anti-glypican-3 IgG1; mutation only in the GpH7-B3 H chain; also called He Ab) heavy 1: not shown heavy 2: not shown light: DIVMTQSPLSLPVTPGEPASISCQASESLVHSNRNTYLHWYLQKPGQSPQLLIYKVSNRFSGVPDRFSGSGSGTDFTLKISRVEAEDVGVYYCSQNTHVPPTFGQGTKVEIERTVAAPSVFIFPPSDEQLKSGTASVVCLLNNFYPREAKVQWKVDNALQSGNSQESVTEQDSKDSTYSLSSTLTLSKADYEKHKVYACEVTHQGLSSPVTKSFNRGEC | 2.34 ratio | 39.5 % of HeCon Ab | 92.5 % of HeCon Ab |
| GpH7-A5/GpH7-B3 variant G236_16H/GpL16-k0 (antibody, human IgG1, kappa, Heterodimerized anti-glypican-3 IgG1; mutation only in the GpH7-B3 H chain; also called He Ab) heavy 1: not shown heavy 2: not shown light: DIVMTQSPLSLPVTPGEPASISCQASESLVHSNRNTYLHWYLQKPGQSPQLLIYKVSNRFSGVPDRFSGSGSGTDFTLKISRVEAEDVGVYYCSQNTHVPPTFGQGTKVEIERTVAAPSVFIFPPSDEQLKSGTASVVCLLNNFYPREAKVQWKVDNALQSGNSQESVTEQDSKDSTYSLSSTLTLSKADYEKHKVYACEVTHQGLSSPVTKSFNRGEC | 2.99 ratio | 27.9 % of HeCon Ab | 83.5 % of HeCon Ab |
| GpH7-A5/GpH7-B3 variant G236_19Q/GpL16-k0 (antibody, human IgG1, kappa, Heterodimerized anti-glypican-3 IgG1; mutation only in the GpH7-B3 H chain; also called He Ab) heavy 1: not shown heavy 2: not shown light: DIVMTQSPLSLPVTPGEPASISCQASESLVHSNRNTYLHWYLQKPGQSPQLLIYKVSNRFSGVPDRFSGSGSGTDFTLKISRVEAEDVGVYYCSQNTHVPPTFGQGTKVEIERTVAAPSVFIFPPSDEQLKSGTASVVCLLNNFYPREAKVQWKVDNALQSGNSQESVTEQDSKDSTYSLSSTLTLSKADYEKHKVYACEVTHQGLSSPVTKSFNRGEC | 1.98 ratio | 46.6 % of HeCon Ab | 92.1 % of HeCon Ab |
| GpH7-A5/GpH7-B3 variant G236_20W/GpL16-k0 (antibody, human IgG1, kappa, Heterodimerized anti-glypican-3 IgG1; mutation only in the GpH7-B3 H chain; also called He Ab; GpH7-A5/GpH7-B3-03-20W/GpL16-k0) heavy 1: not shown heavy 2: not shown light: DIVMTQSPLSLPVTPGEPASISCQASESLVHSNRNTYLHWYLQKPGQSPQLLIYKVSNRFSGVPDRFSGSGSGTDFTLKISRVEAEDVGVYYCSQNTHVPPTFGQGTKVEIERTVAAPSVFIFPPSDEQLKSGTASVVCLLNNFYPREAKVQWKVDNALQSGNSQESVTEQDSKDSTYSLSSTLTLSKADYEKHKVYACEVTHQGLSSPVTKSFNRGEC | 1.81 ratio | 58.2 % of HeCon Ab | 105 % of HeCon Ab |
| GpH7-A5/GpH7-B3 variant G237_03V/GpL16-k0 (antibody, human IgG1, kappa, Heterodimerized anti-glypican-3 IgG1; mutation only in the GpH7-B3 H chain; also called He Ab) heavy 1: not shown heavy 2: not shown light: DIVMTQSPLSLPVTPGEPASISCQASESLVHSNRNTYLHWYLQKPGQSPQLLIYKVSNRFSGVPDRFSGSGSGTDFTLKISRVEAEDVGVYYCSQNTHVPPTFGQGTKVEIERTVAAPSVFIFPPSDEQLKSGTASVVCLLNNFYPREAKVQWKVDNALQSGNSQESVTEQDSKDSTYSLSSTLTLSKADYEKHKVYACEVTHQGLSSPVTKSFNRGEC | 1.28 ratio | 61.4 % of HeCon Ab | 78.5 % of HeCon Ab |
| GpH7-A5/GpH7-B3 variant G237_05P/GpL16-k0 (antibody, human IgG1, kappa, Heterodimerized anti-glypican-3 IgG1; mutation only in the GpH7-B3 H chain; also called He Ab) heavy 1: not shown heavy 2: not shown light: DIVMTQSPLSLPVTPGEPASISCQASESLVHSNRNTYLHWYLQKPGQSPQLLIYKVSNRFSGVPDRFSGSGSGTDFTLKISRVEAEDVGVYYCSQNTHVPPTFGQGTKVEIERTVAAPSVFIFPPSDEQLKSGTASVVCLLNNFYPREAKVQWKVDNALQSGNSQESVTEQDSKDSTYSLSSTLTLSKADYEKHKVYACEVTHQGLSSPVTKSFNRGEC | 1.81 ratio | 24.6 % of HeCon Ab | 44.5 % of HeCon Ab |
| GpH7-A5/GpH7-B3 variant G237_14T/GpL16-k0 (antibody, human IgG1, kappa, Heterodimerized anti-glypican-3 IgG1; mutation only in the GpH7-B3 H chain; also called He Ab) heavy 1: not shown heavy 2: not shown light: DIVMTQSPLSLPVTPGEPASISCQASESLVHSNRNTYLHWYLQKPGQSPQLLIYKVSNRFSGVPDRFSGSGSGTDFTLKISRVEAEDVGVYYCSQNTHVPPTFGQGTKVEIERTVAAPSVFIFPPSDEQLKSGTASVVCLLNNFYPREAKVQWKVDNALQSGNSQESVTEQDSKDSTYSLSSTLTLSKADYEKHKVYACEVTHQGLSSPVTKSFNRGEC | 1.5 ratio | 54.8 % of HeCon Ab | 82.3 % of HeCon Ab |
| GpH7-A5/GpH7-B3 variant G237_16H/GpL16-k0 (antibody, human IgG1, kappa, Heterodimerized anti-glypican-3 IgG1; mutation only in the GpH7-B3 H chain; also called He Ab) heavy 1: not shown heavy 2: not shown light: DIVMTQSPLSLPVTPGEPASISCQASESLVHSNRNTYLHWYLQKPGQSPQLLIYKVSNRFSGVPDRFSGSGSGTDFTLKISRVEAEDVGVYYCSQNTHVPPTFGQGTKVEIERTVAAPSVFIFPPSDEQLKSGTASVVCLLNNFYPREAKVQWKVDNALQSGNSQESVTEQDSKDSTYSLSSTLTLSKADYEKHKVYACEVTHQGLSSPVTKSFNRGEC | 1.32 ratio | 55.2 % of HeCon Ab | 72.6 % of HeCon Ab |
| GpH7-A5/GpH7-B3 variant P238_01G/GpL16-k0 (antibody, human IgG1, kappa, Heterodimerized anti-glypican-3 IgG1; mutation only in the GpH7-B3 H chain; also called He Ab) heavy 1: not shown heavy 2: not shown light: DIVMTQSPLSLPVTPGEPASISCQASESLVHSNRNTYLHWYLQKPGQSPQLLIYKVSNRFSGVPDRFSGSGSGTDFTLKISRVEAEDVGVYYCSQNTHVPPTFGQGTKVEIERTVAAPSVFIFPPSDEQLKSGTASVVCLLNNFYPREAKVQWKVDNALQSGNSQESVTEQDSKDSTYSLSSTLTLSKADYEKHKVYACEVTHQGLSSPVTKSFNRGEC | 1.66 ratio | 56 % of HeCon Ab | 92.9 % of HeCon Ab |
| GpH7-A5/GpH7-B3 variant P238_02A/GpL16-k0 (antibody, human IgG1, kappa, Heterodimerized anti-glypican-3 IgG1; mutation only in the GpH7-B3 H chain; also called He Ab) heavy 1: not shown heavy 2: not shown light: DIVMTQSPLSLPVTPGEPASISCQASESLVHSNRNTYLHWYLQKPGQSPQLLIYKVSNRFSGVPDRFSGSGSGTDFTLKISRVEAEDVGVYYCSQNTHVPPTFGQGTKVEIERTVAAPSVFIFPPSDEQLKSGTASVVCLLNNFYPREAKVQWKVDNALQSGNSQESVTEQDSKDSTYSLSSTLTLSKADYEKHKVYACEVTHQGLSSPVTKSFNRGEC | 1.66 ratio | 57.4 % of HeCon Ab | 95.2 % of HeCon Ab |
| GpH7-A5/GpH7-B3 variant P238_07I/GpL16-k0 (antibody, human IgG1, kappa, Heterodimerized anti-glypican-3 IgG1; mutation only in the GpH7-B3 H chain; also called He Ab) heavy 1: not shown heavy 2: not shown light: DIVMTQSPLSLPVTPGEPASISCQASESLVHSNRNTYLHWYLQKPGQSPQLLIYKVSNRFSGVPDRFSGSGSGTDFTLKISRVEAEDVGVYYCSQNTHVPPTFGQGTKVEIERTVAAPSVFIFPPSDEQLKSGTASVVCLLNNFYPREAKVQWKVDNALQSGNSQESVTEQDSKDSTYSLSSTLTLSKADYEKHKVYACEVTHQGLSSPVTKSFNRGEC | 1.24 ratio | 80 % of HeCon Ab | 99.1 % of HeCon Ab |
| GpH7-A5/GpH7-B3 variant P238_11K/GpL16-k0 (antibody, human IgG1, kappa, Heterodimerized anti-glypican-3 IgG1; mutation only in the GpH7-B3 H chain; also called He Ab) heavy 1: not shown heavy 2: not shown light: DIVMTQSPLSLPVTPGEPASISCQASESLVHSNRNTYLHWYLQKPGQSPQLLIYKVSNRFSGVPDRFSGSGSGTDFTLKISRVEAEDVGVYYCSQNTHVPPTFGQGTKVEIERTVAAPSVFIFPPSDEQLKSGTASVVCLLNNFYPREAKVQWKVDNALQSGNSQESVTEQDSKDSTYSLSSTLTLSKADYEKHKVYACEVTHQGLSSPVTKSFNRGEC | 4.27 ratio | 18.1 % of HeCon Ab | 77.4 % of HeCon Ab |

From patent publication US20150344570A1 (published 2015)
